Measured values: US20240368269A1 (Memorial Sloan Kettering, published 2024)

How the values were obtained:
[1] = target: T1, DLL3 (target in the Fab-Zap internalization assay) (UniProt Q9NYJ7 27-618, limits assumed); experiment: cell-based or functional assay
T1 sequence (looked up): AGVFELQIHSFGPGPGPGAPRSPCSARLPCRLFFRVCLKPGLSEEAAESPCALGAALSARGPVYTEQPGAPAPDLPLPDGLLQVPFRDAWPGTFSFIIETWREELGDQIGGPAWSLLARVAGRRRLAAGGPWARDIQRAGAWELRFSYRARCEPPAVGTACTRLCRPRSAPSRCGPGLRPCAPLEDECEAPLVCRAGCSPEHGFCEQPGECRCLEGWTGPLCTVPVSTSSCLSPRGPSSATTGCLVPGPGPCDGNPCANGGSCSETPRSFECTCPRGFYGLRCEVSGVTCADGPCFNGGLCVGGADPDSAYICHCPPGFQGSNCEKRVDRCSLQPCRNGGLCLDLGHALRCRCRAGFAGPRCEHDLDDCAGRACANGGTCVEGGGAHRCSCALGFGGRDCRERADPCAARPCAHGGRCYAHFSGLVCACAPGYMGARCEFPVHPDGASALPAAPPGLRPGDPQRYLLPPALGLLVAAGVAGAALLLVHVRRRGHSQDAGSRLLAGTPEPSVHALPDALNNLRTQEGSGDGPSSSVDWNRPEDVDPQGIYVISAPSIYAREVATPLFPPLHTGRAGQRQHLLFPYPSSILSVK

hDLL3 = target: T2, hDLL3 (human, UniProt Q9NYJ7 27-492, limits assumed); experiment: Affinity hDLL3 of Table 30; method not given
T2 construct: also called human DLL3
T2 sequence: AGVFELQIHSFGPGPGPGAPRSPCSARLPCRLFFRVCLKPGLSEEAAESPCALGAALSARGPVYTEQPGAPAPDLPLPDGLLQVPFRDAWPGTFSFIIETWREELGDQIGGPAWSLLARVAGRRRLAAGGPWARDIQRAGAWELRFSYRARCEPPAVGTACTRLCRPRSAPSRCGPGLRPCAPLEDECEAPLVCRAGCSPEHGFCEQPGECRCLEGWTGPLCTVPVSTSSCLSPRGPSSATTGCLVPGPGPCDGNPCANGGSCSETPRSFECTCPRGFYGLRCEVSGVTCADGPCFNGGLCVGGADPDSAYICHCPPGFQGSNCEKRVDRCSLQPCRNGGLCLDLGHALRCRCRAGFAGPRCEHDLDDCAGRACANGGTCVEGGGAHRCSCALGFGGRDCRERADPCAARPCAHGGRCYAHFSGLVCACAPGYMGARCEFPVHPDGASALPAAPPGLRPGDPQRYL

B1: B2 (antibody, V domains shown)
VH: QVQLVQSGAEVKKPGASVKVSCKASGYTFTSYYMHWVRQAPGQGLEWMGIINPSGGSTSYAQKFRGRVTMTRDTSTSTVYMELSSLRSEDTAVYYCARGDYDILTDYYYNMDVWGQGTTVTVSS
VL: DIQMTQSPSAMSASVGDRVTITCRASQGISNYLAWFQQKPGKVPKRLIYAASSLQSGVPSRFSGSGSGTEFTLTISSLQPEDFATYYCLQHNSYPYTFGQGTKLEIK
notes: Purified hybridoma monoclonal antibody (Ablexis AlivaMab Kappa mice); format there not clear; also called 3-B2-A
[1]
  Percent Max Killing (Fab-Zap internalization assay, 10 ug/ml): 71.4%
hDLL3
  Kd: 3.55 nM
